Assay results reported in patent US11230711B2, “Inhibition of LET7I as a means to enhance the protective effect of progesterone against stroke” (UNIVERSITY OF NORTH TEXAS HEALTH SCIENCE CENTER, priority 2017, dated 2022).

System: primary cortical neurons
Experiment: Synaptic marker expression (Synaptophysin, Gap-43) in primary cortical neurons, immunostaining and qRT-PCR
Assay type: cell-based, mouse
Conditions: P4-ACM from 10 nM P4-treated astrocytes, 18 hrs, BDNF 50 ng/ml, FIGS. 1A-1B
Excerpt: FIG. 1A represents immune-staining of Gap43 (green) and Synaptophysin (red). FIG. 1B represents qRT-PCR analysis of Gap43 (left) and Synaptophysin (right) mRNA levels. Data are presented as a percentage of control (non-treated group) (*: p≤0.05, **:p≤0.01).
The use of animals for the purpose of generating primary cultures was approved by the Institutional Animal Care and Use Committee at the University of North Texas Health Science Center. All mice will be handled according to the Guide for the Care and Use of Laboratory Animals. Primary cultures of cortex and hippocampal neurons will be prepared from neonatal murine pups (C57BL/6 mice, Jackson Laboratory) as described by Sarkar et al. with modifications. Briefly, cortical tissues isolated from newborn mice (postnatal days 2-4, mixed gender) will be then dissociated with trypsin and DNase I for 10 min at 37° C., and wash twice with Neurobasal-A medium containing B-27 and further dissociated by gentle titration using a graded series of fine polished Pasteur pipettes. After centrifugation at 200×g for 3 min at 4° C., dissociated cells will be resuspended in Neurobasal-AB-27 medium, passed through a cell strainer with 70 μm mesh, and plated at 1.0×10^5 cells/cm2 on culture dishes precoated with poly-D-lysine. The culture dishes were kept at 37° C. in humidified 95% air and 5% CO2. For primary neuron-enriched culture, the initial culture medium was replaced after 5 h; subsequently, half of the medium was changed every 3 days. At day in vitro (DIV) 3, 1-β-arabinofuranosylcytosine (AraC) was added to a final concentration of 5 μM to prevent glial proliferation. Treatments of the primary neuronal cultures started at DIV 14. For glial-enriched cultures, confluent mixed glial cultures were placed on the shaker for 48 hrs to dislodge microglia, resulting in cultures enriched with astrocyte population.
Although the underlying mechanism remains unclear, one potential mediator for P4-induced synaptogenesis is BDNF [33].

[1] = listed as purified recombinant BDNF

B1: BDNF: purified recombinant brain-derived neurotrophic factor, 50 ng/ml, positive control (protein, UniProt P23560 19-247, looked up)
Neurotrophic factor BDNF …: APMKEANIRGQGGLAYPGVRTHGTLESVNGPKAGSRGLTSLADTFEHVIEELLDEDQKVRPNEENNKDADLYTSRVMLSSQVPLEPPLLFLLEEYKNYLDAANMSMRVRRHSDPARRGELSVCDSISEWVTAADKKTAVDMSGGTVTVLEKVPVSKGQLKQYFYETKCNPMGYTKEGCRGIDKRHWNSQCRTTQSYVRALTMDSKKRIGWRFIRIDTSCVCTLTIKRGR
  expression of Gap-43: increased expression
  expression of Synaptophysin: increased expression
[1]
  expression of Gap-43: increased the expression
  expression of Synaptophysin: increased the expression
